The subject of data set [1] is T1, HCV-P preferred substrate construct (DEMEECASHL).
T1 sequence: DEMEECASHL

The target of data set [2] is human AblTK preferred substrate construct.
For data set [3], the target named is T2, human granzyme K preferred substrate construct (CGYGPKKKRKVGG).
T2 chain: CGYGPKKKRKVGG

The target in data set [4] is T3, TENLYFESGTRRW peptide substrate.
T3 chain: TENLYFESGTRRW

The target in data set [5] is T4, TENLYFHSGTRRW peptide substrate.
T4 chain: TENLYFHSGTRRW

Data set [6] has as its target T5, Aga2 substrate fusion polypeptide with HCV-P counter selection sequence and TEV-P selection substrate ENLYFQS.
T5 chain: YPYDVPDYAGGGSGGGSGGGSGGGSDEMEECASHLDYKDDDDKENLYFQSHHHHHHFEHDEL

For hepatitis C protease (HCV-P), in data set [1], the “YESS two-color FACS (PE / FITC)” value was “displayed relatively similar PE but low FITC signals by FACS compared to the controls lacking proteases”.

B1: human Abelson tyrosine kinase (AblTK) (protein)
chain: SPNYDKWEMERTDITMKHKLGGGQYGEVYEGVWKKYSLTVAVKTLKEDTMEVEEFLKEAAVMKEIKHPNLVQLLGVCTREPPFYIITEFMTYGNLLDYLRECNRQEVNAVVLLYMATQISSAMEYLEKKNFIHRDLAARNCLVGENHLVKVADFGLSRLMTGDTYTAHAGAKFPIKWTAPESLAYNKFSIKSDVWAFGVLLWEIATYGMSPYPGIDLSQVYELLEKDYRMERPEGCPEKVYELMRACWQWNPSDRPSFAEIHQAFETMFQESSISDEVEKELGK
In the case of B1, in data set [2], the “YESS FACS (Alexa Fluor 647 anti-phosphotyrosine / anti-6xHis-FITC)” value is reported as “displayed relatively similar FITC but high Alexa Fluor@647 signals by FACS”.

B2: human granzyme K protease (GrK) (protein)
chain: IIGGKEVSPHSRPFMASIQYGGHHVCGGVLIDPQWVLTAAHCQYRFTKGQSPTVVLGAHSLSKNEASKQTLEIKKFIPFSRVTSDPQSNDIMLVKLQTAAKLNKHVKMLHIRSKTSLRSGTKCKVTGWGATDPDSLRPSDTLREVTVTVLSRKLCNSQSYYNGDPFITKDMVCAGDAKGQKDSCKGDSGGPLICKGVFHAIVSGGHECGVATKPGIYTLLTKKYQTWIKSNLVPPHTN
With B2, the “YESS two-color FACS (PE / FITC)” value in data set [3] is “displayed relatively similar PE but low FITC signals by FACS compared to the controls lacking proteases”.

B3: TEV-PE10, purified (protein)
chain: HHHHHHSLFKGPRDYNPISSTICHLTNESDGHTTSLYGIGFGPFIITNKHLFRRNNGTLLVQSLHGVFKVKNTTTLQQHLIDGRDMIIIRMPKDFPPFPQKLKFREPQREERICLVTTNFQTKRMSSMVSDTSCTFPSSDGIFWKHWIQTKRGQCGSPLVSTRDGFIVGIHSASNFANTNKYFTSVPKNFMELLTNQEAQQWVSGWRLNADSVLWGGHKVFIPKPEEPFQPVKEATQLMN
The term KM denotes the concentration of substrate that gives half-maximal velocity. The kcat is the maximal rate divided by the concentration of active sites. What is called kcat/KM is the second-order rate constant that governs catalysis at low substrate concentration. Turning to B3, in data set [4], the Michaelis-Menten constant (KM) is 12.8 µM, the “fold higher kcat/KM on TENLYFESGTRRW versus […]” value was 13-fold higher kcat/KM value, the catalytic constant (kcat) was 0.0255 s⁻¹ and the catalytic efficiency (kcat/KM) came to 2060 M⁻¹ s⁻¹. For the same molecule, the “reversal of substrate specificity compared to TEV-P” value in data set [4] is 5000-fold reversal of substrate specificity compared to TEV-P.

B4: TEV-PH21, purified (protein)
chain: HHHHHHSLFKGPRDYNPISSAICHLTNESDGHTTSLYGIGFGPFIITNKHLFRRNNGTLLVQSLHGVFKVKNTTTLQQHLIDGRDMIIIRMPKDFPPFPQKLKFREPQREERICLVTTNFQTKSMSSMVSDTSCTFPSSDGIFWKHWIQAKPGQCGCPLVSTRDGFIVGIHTAANFANTNNYFTSVPKNFMELLTNQEAQQWVSGWRLNADSVLWGGHKVFMPKPEEPFQPVKEATQLMN
Regarding B4, in data set [5], the Michaelis constant (KM) amounted to 250 µM, the fold higher kcat/KM on TENLYFHSGTRRW versus […] came to 7 fold, the turnover number (kcat) was determined as 0.0375 s⁻¹ and the kcat/KM was 150 M⁻¹ s⁻¹. Further, in data set [5], the “reversal of substrate specificity compared to TEV-P” value is 1100-fold reversal of substrate specificity compared to TEV-P.

B5: wild-type TEV protease (TEV-P), purified (protein)
chain: HHHHHHSLFKGPRDYNPISSTICHLTNESDGHTTSLYGIGFGPFIITNKHLFRRNNGTLLVQSLHGVFKVKNTTTLQQHLIDGRDMIIIRMPKDFPPFPQKLKFREPQREERICLVTTNFQTKSMSSMVSDTSCTFPSSDGIFWKHWIQTKDGQCGSPLVSTRDGFIVGIHSASNFTNTNNYFTSVPKNFMELLTNQEAQQWVSGWRLNADSVLWGGHKVFMPKPEEPFQPVKEATQLMN
In the case of B5, in data set [4], the Michaelis constant (KM) amounted to 1930 µM, the “fold by which kcat/KM on […] exceeds kcat/KM on TENLYFESGTRRW” value is recorded as 375-fold, the kcat was found to be 0.00609 s⁻¹ and the kcat/KM was found to be 3.14 M⁻¹ s⁻¹. In data set [5], the KM stood at 640 µM, the “fold by which kcat/KM on […] exceeds kcat/KM on TENLYFHSGTRRW” value was 150-fold, the catalytic constant (kcat) came out at 0.00493 s⁻¹ and the kcat/KM turned out to be 7.55 M⁻¹ s⁻¹.

B6: TEV-P anchored with a C-terminal ER retention sequence, expressed in the yeast ER (protein)
chain: SLFKGPRDYNPISSTICHLTNESDGHTTSLYGIGFGPFIITNKHLFRRNNGTLLVQSLHGVFKVKNTTTLQQHLIDGRDMIIIRMPKDFPPFPQKLKFREPQREERICLVTTNFQTKSMSSMVSDTSCTFPSSDGIFWKHWIQTKDGQCGSPLVSTRDGFIVGIHSASNFTNTNNYFTSVPKNFMELLTNQEAQQWVSGWRLNADSVLWGGHKVFMPKPEEPFQPVKEATQLMNFEHDEL
Turning to B6, in data set [6], the “YESS two-color FACS (anti-FLAG-PE / anti-6xHis-FITC)” value is given as “high PE but low FITC fluorescence”.
